Molecular target: REK7 (endogenous, on rat E16 cortical neurons) (rat)
Assay: cell-based or functional assay

tyrosine autophosphorylation of REK7 (immunoprecipitation with anti-REK7, anti-phosphotyrosine blot): 2 fold
Substance: soluble AL-1 (purified from BT20 conditioned medium) (ligand)
